Reference: patent US7351553B2, “BK beta subunits of Slo family potassium channels” (Icagen, Inc., priority 1999, dated 2008)

Columns and labels:
Slo-1/BKB3 = biological target: T1, Slo-1/BKB3 (Homo sapiens, UniProt Q12791); experiment: Whole-cell voltage-clamp of membrane currents in HEK293 cells co-expressing Slo-1 and BK beta 3; assay type: cell-based; conditions: for sensitivity (block) of membrane currents: CTX 100 nM
T1 construct: expressed in transfected cells; host or cells: HEK293
Description: (§1) FIG. 6. Slo-1/BKB3 forms BK type II-like charybdotoxin-(CTX) insensitive channels. Slo-1 (A) or Slo-1+BK beta 3 (B) were expressed in HEK293 cells and membrane currents measured using the whole-cell voltage-clamp technique. […]. In contrast, membrane currents in cells co-expressing Slo-1 and BK beta 3 were TEA (5 mM) sensitive but CTX (100 nM) insensitive (FIG. 6B). Similar recordings were made from 4 cells expressing Slo-1 alone and 6 cells co-expressing Slo-1/BKB3. Scale bars represent InA and 200 ms.

Slo-1 = biological target: T2, Slo-1 (Homo sapiens, UniProt Q12791); experiment: Whole-cell voltage-clamp of membrane currents in HEK293 cells expressing Slo-1 alone; assay type: cell-based; conditions: 250 ms depolarizing steps from holding potential -80 mV; for inhibition (block) of membrane currents: CTX 100 nM
T2 construct: expressed in transfected cells; host or cells: HEK293
T2 sequence (Q12791 whole entry): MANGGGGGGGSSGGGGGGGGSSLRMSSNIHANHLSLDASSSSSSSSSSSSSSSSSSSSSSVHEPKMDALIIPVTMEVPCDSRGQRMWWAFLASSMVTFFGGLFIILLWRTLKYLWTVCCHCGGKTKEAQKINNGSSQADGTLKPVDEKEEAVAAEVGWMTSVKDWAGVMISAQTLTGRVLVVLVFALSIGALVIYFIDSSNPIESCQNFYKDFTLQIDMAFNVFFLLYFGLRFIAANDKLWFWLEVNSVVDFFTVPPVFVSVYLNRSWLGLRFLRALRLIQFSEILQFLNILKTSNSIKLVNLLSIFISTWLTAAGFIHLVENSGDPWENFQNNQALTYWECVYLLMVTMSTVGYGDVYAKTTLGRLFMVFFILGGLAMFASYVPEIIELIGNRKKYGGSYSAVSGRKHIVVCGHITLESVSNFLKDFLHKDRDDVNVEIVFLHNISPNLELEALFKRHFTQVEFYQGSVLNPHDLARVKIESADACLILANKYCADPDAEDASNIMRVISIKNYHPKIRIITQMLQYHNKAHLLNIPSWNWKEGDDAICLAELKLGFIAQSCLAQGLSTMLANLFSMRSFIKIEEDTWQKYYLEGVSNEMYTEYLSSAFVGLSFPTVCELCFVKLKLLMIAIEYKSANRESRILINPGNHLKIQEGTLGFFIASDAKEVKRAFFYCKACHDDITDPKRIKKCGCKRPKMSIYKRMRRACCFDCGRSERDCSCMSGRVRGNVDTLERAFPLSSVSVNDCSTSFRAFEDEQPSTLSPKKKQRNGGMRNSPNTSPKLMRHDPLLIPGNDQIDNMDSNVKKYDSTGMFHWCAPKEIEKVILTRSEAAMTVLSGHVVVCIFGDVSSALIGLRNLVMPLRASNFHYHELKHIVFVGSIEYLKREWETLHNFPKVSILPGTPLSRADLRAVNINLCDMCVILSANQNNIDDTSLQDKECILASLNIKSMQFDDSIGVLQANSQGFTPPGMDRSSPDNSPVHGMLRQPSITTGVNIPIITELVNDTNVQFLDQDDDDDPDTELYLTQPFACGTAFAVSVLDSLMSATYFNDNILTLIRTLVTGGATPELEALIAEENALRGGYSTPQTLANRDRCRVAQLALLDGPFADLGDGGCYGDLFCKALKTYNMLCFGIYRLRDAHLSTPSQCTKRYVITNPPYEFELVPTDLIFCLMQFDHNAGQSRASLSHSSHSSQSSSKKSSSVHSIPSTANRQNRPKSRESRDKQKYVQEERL
Description: as §1

T1 sequence (Q12791 whole entry): as above
T1 sequence (Q86W47 whole entry partner): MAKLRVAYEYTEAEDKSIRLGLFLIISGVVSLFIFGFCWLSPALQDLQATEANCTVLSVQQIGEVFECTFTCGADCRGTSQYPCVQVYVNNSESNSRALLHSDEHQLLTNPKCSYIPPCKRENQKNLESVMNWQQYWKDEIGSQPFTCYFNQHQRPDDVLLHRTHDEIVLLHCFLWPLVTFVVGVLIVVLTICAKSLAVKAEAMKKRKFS

Compound	sensitivity of membrane currents (Slo-1/BKB3; TEA 5 mM)	inhibition of membrane currents (Slo-1; TEA 5 mM)	sensitivity (block) of membrane currents (Slo-1/BKB3)	sensitivity (block) of membrane currents (Slo-1/BKB3; listed as charybdotoxin)	inhibition (block) of membrane currents (Slo-1)	inhibition (block) of membrane currents (Slo-1; listed as charybdotoxin)
CC[N+](CC)(CC)CC [TEA]	sensitive	strongly inhibited				
charybdotoxin [CTX]			insensitive	virtually unblocked	strongly inhibited	almost completely blocked
